The data set concerns the molecule itself. In words: crystal structure; DNMT3A(628-912, WT or R882H)-DNMT3L(178-386) tetramer covalently bound to 25-mer zebularine DNA duplex (CGA, CGT or CAG) and SAH; crystals at 4 °C from 0.1 M sodium citrate pH 4.2 or 4.4, PEG8000.

B1: DNMT3A R882H mutant, MTase (C-terminal) domain, residues 628-912 (domain or fragment, UniProt Q9Y6K1 628-912, looked up)
chain: AEKRKPIRVLSLFDGIATGLLVLKDLGIQVDRYIASEVCEDSITVGMVRHQGKIMYVGDVRSVTQKHIQEWGPFDLVIGGSPCNDLSIVNPARKGLYEGTGRLFFEFYRLLHDARPKEGDDRPFFWLFENVVAMGVSDKRDISRFLESNPVMIDAKEVSAAHRARYFWGNLPGMNRPLASTVNDKLELQECLEHGRIAKFSKVRTITTRSNSIKQGKDQHFPVFMNEKEDILWCTEMERVFGFPVHYTDVSNMSHLARQRLLGRSWSVPVIRHLFAPLKEYFACV
modifications: catalytic cysteine C710 covalently linked to zebularine of the DNA (in the crystallised complexes)
notes: DNMT3A, MTase domain (C-terminal domain), residues 628-912, with the AML hotspot mutation R882H; R882H is a mutation found in acute myeloid leukemia patients; it was removed by ULP1; also called R882H-mutated DNMT3A; R882H DNMT3A; source: E. coli BL21 DE3 (RIL), co-expressed with DNMT3L, purified (Ni-NTA, Heparin, SEC); not shown: His6-SUMO, N-terminal, cleaved
In the case of B1, the binding result was “binds”.

The values above are taken from PMC7210271, “Structural basis for impairment of DNA methylation by the DNMT3A R882H mutation” (Nature Communications, 2020).
